Where a chain is given by its changes, count along the chain named.
Key:
[1] = target: 4-1BB expressed on cells (HEK293-4-1BB, 4-1BB-Jurkat, GloResponse NFκB-luc2/4-1BB Jurkat) (UniProt Q07011); experiment: Flow cytometry on HEK293-4-1BB cells, PE anti-human IgG, MFI
human 4-1BB-His protein = target: T1, human 4-1BB-His protein (human, UniProt Q07011 24-186); experiment: ELISA, coated human 4-1BB-His, detection with anti-human IgG-HRP, OD450
T1 construct: not shown: His tag

[2] = target: human 4-1BB-biotin protein (human, UniProt Q07011 24-186, limits assumed); experiment: Dual antigen capture ELISA: coated CLDN18.2 VLP, antibody titrated, then human 4-1BB-biotin at 1 ug/ml and streptavidin-HRP, OD450
Sequence of human 4-1BB-biotin protein (Q07011 24-186 limits assumed): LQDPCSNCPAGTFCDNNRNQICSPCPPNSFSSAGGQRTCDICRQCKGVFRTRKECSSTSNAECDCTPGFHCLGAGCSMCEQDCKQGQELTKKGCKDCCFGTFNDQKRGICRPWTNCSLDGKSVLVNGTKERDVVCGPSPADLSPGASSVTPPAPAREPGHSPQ

[3] = target: T2, 4-1BB expressed on cells (HEK293-4-1BB, 4-1BB-Jurkat, GloResponse NFκB-luc2/4-1BB Jurkat) (UniProt Q07011 24-255, limits assumed); experiment: Flow cytometry on HEK293-4-1BB cells, PE anti-human IgG, MFI
T2 construct: whole, on cells; also called HEK293 expressed 4-1BB; HEK293-4-1BB cells
T2 sequence (Q07011 24-255 limits assumed): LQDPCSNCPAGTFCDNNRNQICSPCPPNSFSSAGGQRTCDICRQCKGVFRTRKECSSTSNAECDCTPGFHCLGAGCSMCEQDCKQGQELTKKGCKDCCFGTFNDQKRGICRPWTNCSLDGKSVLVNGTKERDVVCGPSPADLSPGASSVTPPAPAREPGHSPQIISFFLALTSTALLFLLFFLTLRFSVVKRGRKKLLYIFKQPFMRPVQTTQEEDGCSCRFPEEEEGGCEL
Description: To evaluate the antigen binding property, the anti-CLDN18.2-4-1BB antibodies were analyzed for their binding to HEK293 expressed 4-1BB by FACS. A total number of 1×10⁵ HEK293-4-1BB cells in each well were incubated with serial diluted antibodies for 30 minutes at 4° C. in FACS buffer (2% FBS in PBS). After wash by FACS buffer, PE conjugated-anti-human IgG antibody was added to each well and incubated at 4° C. for 30 minutes. After wash, MFI of PE was evaluated by FACS Caliber.

human 4-1BB-Fc protein = target: T3, human 4-1BB-Fc protein (human, UniProt Q07011 24-186); experiment: ELISA, coated human 4-1BB-Fc
T3 construct: not shown: Fc part
T3 sequence (Q07011 24-186 limits assumed): as the sequence (Q07011 24-186 limits assumed) above

T1 sequence (Q07011 24-186 limits assumed): as above
Sequence of 4-1BB expressed on cells (HEK293-4-1BB, 4-1BB-Jurkat, GloResponse NFκB-luc2/4-1BB Jurkat) (UniProt Q07011) (Q07011 24-255 limits assumed): as the sequence (Q07011 24-255 limits assumed) above

Molecule: urelumab (BMUR) anti-4-1BB monoclonal antibody
- EC50 (read off the curve) [1]: 0.06 nM
- EC50 (read off the curve) (human 4-1BB-His protein): 0.6 nM

B1: 72C1B6A3 anti-CLDN18.2 monoclonal antibody (antibody, V domains shown)
VH: QVQLVQSGAEVKKPGASVKVSCKASGYTFTTYPIEWVRQAPGQRLEWMGNFHPYNDDTKYNEKFKGRVTITRDTSASTAYMELSSLRSEDTAVYYCARRAYGYPYAMDYWGQGTLVTVSS
VL: DIVMTQSPDSLAVSLGERATINCKSSQSLLNAGNQKNYLTWYQQKPGQPPKLLIYRASSRESGVPDRFSGSGSGTDFTLTISSLQAEDVAVYYCQNDYIYPYTFGGGTKLEIK
notes: also called CLDN18.2 mAb 72C1B6A3
- binding result [2]: no binding (tested: 100 nM)

B2: 1A10 anti-4-1BB monoclonal antibody (antibody, V domains shown)
VH: EVQLLESGGGLVQPGGSLRLSCAASGFTFSSYDMSWVRQAPGKGLEWVSWISYSGGSIYYADSVKGRFTISRDNSKNTLYLQMNSLRAEDTAVYYCARDAQRNSMREFDYWGQGTLVTVSS
VL: QSVLTQPPSASGTPGQRVTISCSGSSSNIGNNYVTWYQQLPGTAPKLLIYADSHRPSGVPDRFSGSKSGTSASLAISGLRSEDEADYYCATWDYSLSGYVFGGGTKLTVL
- EC50 (read off the curve) [3]: ~0.2 nM
- EC50 (read off the curve) (human 4-1BB-His protein): ~0.5 nM

B3: 41B01.02 anti-4-1BB antibody (antibody, V domains shown)
VH: B2 VH with N103Q
VL: B2 VL with Q16R
notes: Full human anti-4-1BB antibody
- binding result (human 4-1BB-Fc protein): binds

Reference: patent publication US20220348675A1 (I MAB BIOPHARMA US, published 2022)
